Reference: the nanobody polyreactivity screen of Harvey et al. (2022)

Assay: yeast display, Sf9 membrane polyspecificity reagent, FACS + sequencing; frameworks hold sequencing errors
Summary of the method: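 Synthetic nanobody libraries on Saccharomyces cerevisiae BJ5465 were galactose-induced for 36–48 hours, stained 1 hour at 4 °C with 10% biotinylated, detergent-solubilized Sf9 membrane reagent and enriched on streptavidin microbeads. FACS then separated cells into low and high (top ~1%) gates by anti-HA (expression) and streptavidin (reagent binding) fluorescence. Genes were colony-PCR amplified, MiSeq 2 × 250 sequenced and CDR-length filtered. A clone's polyreactivity label is that of its gate of origin.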

Sequence	polyreactivity (PSR sort gate)
QVQLVESGRGLVQEGGSLRLSCAPSGLIFRYYAMGWYRQAPGKEREFVAAISGRGASTYYADSVKGRFTISRDNAKITGYLQMNSLTPEDTAVYYCATYFPSAVVAFHMDYWGQGTQVTVSS	high polyreactivity
QVQLGESGGGLVQAGGSLRLSCAASGRIFRTNAMGWYRQAPGKERELVAAITFSGGGTYYADSVKGRFTISRDNAKNTVYLQMNSLKPEDTAVYYCATDWYYEYYDWGQGTQVTVSS	low polyreactivity
QVQLVESGGGLVQAGGSLRLSCAASGIIFAFYAMGWYRQAPGKERELVATISKSGGRTYYADSVKGRFTISRDNAKNTVYLQMNSLKPEDTAVYYCAARIQYAFGADYYWGQGTQVTVSS	low polyreactivity
QVQLVESGGGLVQAGGSLRLSCAASGSTFAYYAMGWYRQAPGKERELVAVISVSGDGTSTYYADSVKGRFTISRDNAKNTVYLQMNSLKPEDSAVYYCAAEQVLVGGHTYSLTYDYWGQGTQVTVSS	low polyreactivity
QVQLVESGGGLVQAGGSLRLSCAASGSTFYPYAMGWYRQAPGKERELVAAISSGGSTNYADSVKGRFTISRDNAKYTVYLQMNSLKPEDTAVYYCAAASGSRRHGYWGQGTQVTVSS	high polyreactivity
QVQLVESGGGLVQAGGSLRLSCAASGSIFYYNAMGWYRQAPGKERELVAGISYTGGSTYYADSVKGRFTISRDNAKNTVYLQMNSLKPEDTAVYYCAAVRQYYFRYKINTSGYQYYYWGQGTQVTVSS	high polyreactivity
QVQLVESGGGLVQAGGRLRLSCAASGFIFVRNAMGWYRQAPGKERELVAAISRGGGRTYYADSVKGRFTISRDNAKNTVYLQINRLKPEDTAVYYCNTQSVGVQFVKDNYWGQGTQVTVSS	high polyreactivity
QVQLVESGGGLVQAGGSLRLSCAASGSTFIGNAMGWYRQAPGKERELVADISWSTASTYYADSVKGRFTISRDNAKNTVYLQMNSLKPEDTAVYYCARDPFVYLYLVDYDYWGQGTQVTVSS	low polyreactivity
QVQLVESGGGLVQAGGSLRLSCAASGSIFESYVMGWYRQAPGKERELVAAISYTGDDTYYADSVKGRFTISRDNAKNTVYLQMNSLKPEDTAVYYCNADNYYYYPWYVRALDSWGQGTQVTVSS	low polyreactivity
QVQLVESGGGLVQSGGSLRLSCAASGSIFYLYAMGWYRQAPGKERELVAAISWTGGSSYYADSVKGRFTISRDNAKNTVYLQMNSLKPEDTAVYYCAADRVLGGPQPGGSSFRGDYWGQGTQVTVSS	low polyreactivity
QFQLVESGGGLLQAGGSLRLSCADSGFIFCEYAMGWYRQAPGKERELVAAITWSGGRTYYADSVKGRFTISRDNAKNTVYLQMNSLKTEDTAVYYCSAYGSFWYAGFGYWGQGTQVTVSS	low polyreactivity
QVQLEESGGGLVQAGGSLRLSCAASGSTFVPNDMGGYRQAPGKERELVAAITDSGGSTYYADSVKGRFTISRDNAKNTVYLQMNSLKPEDTAVYYCAAEKAEWYYHTVWHFARGEYWGQGTQVTVSS	low polyreactivity
QVQLVDSVGGLVQAGGSLRLSCAASGSIFGYYAMAWYRQAPGKERELFASITRSGDTTYYADSVKGRFTISRDNANNTVFLQMNSLKQEDTAVSYCAARRWRWYYDGFVRMDYWGQGTQVTVSS	high polyreactivity
QVQLVESGGGLVQAGGSLRLSCAASGRISQNAMGWYRQAPGKERELVAAITFSGGSTYYADSVKGRFTISRDNAKNTVYFQMNSLKPEDTAVYYCNADWPAQWHYYDSKQDDYWGQGTQVTVSS	low polyreactivity
QEQLVESGGGLVQAGGSLGLSCAASGLTFSYYAMRWYRQAPGKERELVAAIDYSGGTTYADSVKGRFTISRDNAKNTVYLQMNSLKPEDTAVYYCAAAPDGWFASGDEYWGQGTQVTVSS	high polyreactivity
QDQLVESGGGLVQAGGSLRLSCAASGLIFYGYVMGWYRQAPGKERELVAGISRNSGSTYYADSVKGRFTISRDNAKNTVYLQMNSLKPEDTAVYYCAALKFEAWAGEDYWGQGTQVTVSS	low polyreactivity
QVQLVESGGGLVQAGGSLRLSSAASGSTLQYNAMGWYRQAPGKERELVASITWSDGSTYYADSVKGRFTISRDNAKNTVYLQMNSLKPEDTAVYYCNRDDQPALWSSGGYNYWGQGTQVTVSS	high polyreactivity
QVQLQGSGGGLVQAGGSLRLSCAASGYIFQNVPMGWNRQAPGKERELVAGIDNGTSTNYADSVNGRFTISRDNAKNTVYLQMNSLNPVDTAVYYCAAAGQADDTLGYWGQGTQVTVSS	low polyreactivity
QVQLVQAGGGLVQAGGSLRLSSAPSGFTLYHYARGWYSQAPGKERQLVASITRSGASTYYPDSVKGRFTISRDNAKYTVYVQMNSLKPEDPAVYYCNKVRYTSSIWTYYDWGQGTQVTVSS	high polyreactivity
QVQHVESRRGLVQAGGSLRLSCAASGFTFYSYAMGWYRQAPGKEREFVAAGSTYYADSVKGRFTISRDNAKNTDYLQMNSLKPEDTAVYYCATDPIGGWTRPQRYGDDYWGQGTQVTVSS	low polyreactivity
QVQLVESGGGLVQAGGSLRLSCAASGIILYPYAMGWYRQAPGKERELVAAISWSGGSTYYADSVKGRFTISRDNAKNTVYLQMNSLKPEDTAVYYCAARPRRRYYGYDSWGQGTQVTVSS	high polyreactivity
QVQLQESGRRPGAAGGSPRMSCAASGNIFWVAVMGRYRQAPGKERELVASIGFGCTTYYADSVKCRFTISRDNAKNTVFLQLISLKPEDTAVYYCAAPLYDWGELDDWGQGTQVPVSS	low polyreactivity

Sequence	polyreactivity (PSR sort gate)
QVQLVESGGGLVQAGGSLRLSCAASGFIFGYYGMGWYRQAPGKERELVAAITDGGSTTYADSVKGRFTISRDNAKNTVYLQMNSLKPEDTAVYYCNAEAGGFDYYGKTYRYGDYWGQGTQVTVSS	low polyreactivity
QVQLVESGVGLVQAGGSLRLSCAASGSIFYDNAMGWYRQAPGKERELVAVITVSGDSTYYADSVKGRFTISRDNAKNTVYLQMNSLKPEDTAVYYCNTDAISGSHFWRYITFGYLDDYWGQGTQVTVSS	low polyreactivity
QVQLVESGACLVQAGGRLRLSCAASGRICGLNAMVWYRQAPGKERELVASITYSGGSTYYADSVKGRFTISRDNAKNTVYLQMNSLKPEYTADYYCAADSWYYWYSTYDYWGQGTQVTVSS	high polyreactivity
QVQLVESGGGLVQAGGSLRLSCAASGSIFRPSAMGWYRQAPGKERELVAAIRWSTGNTYYADSVKGRFTISRDNAKNTVYLQMNSLKPEDTAVYYCAAAYWPVVWFYYWGQGTQVTVSS	low polyreactivity
QVQLVETRGGLVQAGGSLRLSCAASGSIFRTNVMGRYRQAPGKERELVAAISRRGGSTYYADSVKGRFTISRDNAKNTVYLQMITLKPEDTAVYYCAASSSAYRDDYWGQGTQVTVSS	high polyreactivity
QDQLVESGGGLVQAGGSLRISCAASGSIFTYNAMGWYREAPGKERELVAAINTSGSTNYADSVKGRFTISRDNAKNTVYLQKNSLKPEDTAVYYCAADYPYWRRPYSRYGYWGQGTQVTVSS	low polyreactivity
QVQLVESGGGLVQAGGSLRLSCAASGNTLSFYTMGWYRQAPGKERELVAAISSDGTTYYADSVKGRFTISRDNAKNTVYLQMNSLKPEDTAVYYCAKAHYEWIWTRYDYWGQGTQVTVSS	low polyreactivity
QVQLVESGGGLVQAGGSLRLSCAASGRTLDSNAMGWYRQAPGKERELVAAISSAGSTNYADSVKGRFTISRDNAKNTVYLQMNSLKPEDTAVYYCAADLIGSHDYWGQGTQVTVSS	low polyreactivity
QVQLVESRGGLVQAGGSLRLSCAASGRIFAYYAKGWYRPAPGKERELVAAIRGSGGSTYYAESVKGRFTISRDNAKNTVYLQMNSLKPEDTAVYYCAARTQPKKFYYWGQGTQVTVSS	high polyreactivity
QVQLVESGGGLVQAGGSLRLSCAASGFTLTAYAMGWYRQARGKEREFVAAISTSGTRTYYADSVKGRFTISRDNAKNTVYLQMNSLKPEDTAVYYCGARYSGYQYWKFNYWGQGTQVTVSS	high polyreactivity
QVQLVESGGGLVQAGGSLRLSCAASGFIFYLYTMGWYRQAPGKERELVAAITRSGGTYYADSVKGRFTISRDNAKNTVYLQMNSLKPEDTAVYYCNADDYEGYYYWGQGTQVTVSS	low polyreactivity
QFQHVESGGGLVQAGGSLRLSCAASGRTFGPYAMGCYIQAPGKERELVAAISSGGRTYYADSVKGRFTISRDNAKNTVYFQMNSLKPEDTAVYYCAATYGPSRYRYDYWGQGTQVTVSS	high polyreactivity
QVQLVESGGGLVQAGGSLRLSCAASGFTLARYAMGWYRQATGKERELVAAITKRGGSTYYADSVKGRFTISRDNAMNTVYLQMNSLKPEDTAVYYCATYKRSSHYDYWGQGTQVTVSS	high polyreactivity
QVQLVESGGGLVQAGGSLSLICDASGRTFTRYVMGWYRHAPGKERELVAAISSSGGTYYADSVKGRFTISRDNAKNTVYLQMNSLKPEDTAVYYCAVGSKLSRSYGYYYWGQGTQVTVSS	high polyreactivity
QVQLVESGGGLVQAGGSLRLSCAASGRIFGRYAMGWYRPAPGKEREFVAAISKRGGGTYYADSVKGRFTISRDNAKNTVYLQMNSLKPEDTAVYYCAVDNSPGFDDYDYWGQGTQVTVSS	high polyreactivity
QVQLVESGGGLVQAGGSLRLSCAASGFTFPYYAMGWYRQAPGKERELVAAISKSGGSTYYADSVKGRFTISRDNAKNTVYLQMNSLKPEDTAVYYCAAQGGSKYRGYYYWGQGTQVTVSS	high polyreactivity
QEQLQESGSGLVQAGGSLRLSCAASGNIFQDWVRGWYRQAPGKERELVAAISPGAITYDADSVKGRFTISRDNAKNTVYLQTNSLNPEDTAVYYCAAYYIVEYLQGYWGQGTRVTVSS	low polyreactivity
QDQHVESGGGLVQAGGSLRLSCAASGIIFTRNAMGWYRQAPGKERELVAVISWGGRTYYADSVKGRFTISRDNAKNTVYLQMNSLKPEDTAVYYCNARAPYPVGGRKGDYWGQGTQVTVSS	high polyreactivity
QVQLVESGGGLVQAGGSLRLSCAASGIIFGTNAMGWSRQAPGKERELVAGITSSGDSTYYADSVKGRFTISRDNAKNTVYLQMNSLKPEDTAVYYCARDIRTREFDSWGQGTQVTVSS	low polyreactivity
QVQLVESGGGLVQAGGSLRLSCDASGSIFGKYTMGWYRQAPGKVRELVAAISKRGGSTRYADSVKGRFTISRDNAKNTVYLQMNSLKPEDTAVYYCAAYRYWMYRYQIVNYGYWGQGTQVTVSS	high polyreactivity
QVQLVESGGGLVQAGGSLRLSCAASASIFDHYAMGCYRQAPGKARELVAAITWDGTSTYYADSVKGRFTISRDNAKNTVYLQMNSLKPEDTAVYYCADDFYPYSWEEVDYWGQGTQVTVSS	low polyreactivity
